From paper PMC6897951, “Unusual features of the c-ring of F1FO ATP synthases” (Scientific Reports, 2019) come the findings set out here.

The series deals with the molecule itself. Description: crystal structure; in meso crystallisation (monooleoyl lipidic phase) of solubilised cF1FO, 27.4 mg/mL, 0.1 M MES pH 5.8, 1.4 M ammonium sulfate, 22 °C; space group I121; 2.3 Å.

B1: c-subunit of the spinach chloroplast F1FO ATP synthase (cF1FO), as the c14-ring (natural protein, Spinacia oleracea (spinach), UniProt P69447 1-81, looked up)
chain: MNPLIAAASVIAAGLAVGLASIGPGVGQGTAAGQAVEGIARQPEAEGKIRGTLLLSLAFMEALTIYGLVVALALLFANPFV
notes: ATP synthase subunit c of the chloroplast FO, Spinacia oleracea; Native protein from leaves; also called c1 subunit; c1 protomer; source: only the c14-ring crystallised; copies: 14
As for B1, the “stoichiometry N” value was 14.

What is called stoichiometry N is a count of units in the complex or per binding partner.
